Two molecules from PMC3937224, “Convergence of Light and ABA Signaling on the ABI5 Promoter” (PLoS Genetics, 2014) can be followed below.

One series addresses T1, GST-ABI5 (Arabidopsis thaliana, UniProt Q9SJN0 1-442).
T1 construct: ABI5 (ABA … 5), Arabidopsis thaliana; Probably made in E. coli like GST and GST-HY5; source: purified
T1 sequence (looked up): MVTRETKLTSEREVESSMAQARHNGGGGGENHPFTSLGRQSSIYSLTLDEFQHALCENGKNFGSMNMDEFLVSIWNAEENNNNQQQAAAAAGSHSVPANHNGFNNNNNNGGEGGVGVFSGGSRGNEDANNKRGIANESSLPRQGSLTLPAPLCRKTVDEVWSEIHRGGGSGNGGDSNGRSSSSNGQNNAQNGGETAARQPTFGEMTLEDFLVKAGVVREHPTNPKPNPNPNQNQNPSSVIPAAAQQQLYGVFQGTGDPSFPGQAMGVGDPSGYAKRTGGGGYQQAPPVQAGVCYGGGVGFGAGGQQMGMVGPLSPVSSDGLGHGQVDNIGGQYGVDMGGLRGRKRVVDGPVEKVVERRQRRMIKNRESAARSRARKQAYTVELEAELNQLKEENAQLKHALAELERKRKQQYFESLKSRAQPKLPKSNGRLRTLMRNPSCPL
The experiment in a line: pull-down; 2 µg 6×His-BBX21 bound to Ni-NTA magnetic beads (2 h, 4°C), incubated overnight at 4°C with 2 µg GST or GST-ABI5; wash with 10 mM Tris pH 8.0, 100 mM NaCl, 0.1% Triton X-100, 5 mM imidazol; Western blot with anti-GST. The following applies: both partners purified.

A further series concerns the target T2, GST-HY5 (Arabidopsis thaliana, UniProt O24646 1-168).
T2 sequence: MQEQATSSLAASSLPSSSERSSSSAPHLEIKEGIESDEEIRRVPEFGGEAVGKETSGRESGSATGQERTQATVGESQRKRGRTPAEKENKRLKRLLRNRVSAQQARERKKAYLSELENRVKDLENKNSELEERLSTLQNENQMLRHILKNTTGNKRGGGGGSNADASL
The series is described as follows: EMSA; 0.5 ug protein; no BBX21; 10 mM Tris-HCl (pH not stated), 150 mM KCl, 1 mM DTT, 50 ng/ml poly(dI-dC), 2.5% glycerol, 0.05% NP-40, 100 mM ZnCl2 (so in the source), 0.5 ug/ml BSA, 20 min at room temperature; 6% native PAGE. The following applies: protein: recombinant; tags: N-terminal GST (pGEX-6P-1, printed pEGX-6P-1); chain copies: 2; label: 5' biotin; blunt (complementary oligonucleotides; second strand not seen in material).

Another series deals with T3, 6xHis-BBX21 (STH2) (Arabidopsis thaliana, UniProt Q9LQZ7 1-331).
T3 sequence: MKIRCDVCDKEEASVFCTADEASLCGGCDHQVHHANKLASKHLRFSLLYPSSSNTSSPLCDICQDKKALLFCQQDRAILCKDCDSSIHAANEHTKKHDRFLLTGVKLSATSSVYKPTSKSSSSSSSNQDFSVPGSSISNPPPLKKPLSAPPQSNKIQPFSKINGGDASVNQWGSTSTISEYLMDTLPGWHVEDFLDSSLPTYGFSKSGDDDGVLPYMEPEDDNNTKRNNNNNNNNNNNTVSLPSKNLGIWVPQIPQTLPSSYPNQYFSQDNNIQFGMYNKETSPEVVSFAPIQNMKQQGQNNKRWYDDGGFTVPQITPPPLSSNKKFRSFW
The series is described as follows: EMSA; 10 mM Tris-HCl (pH not stated), 150 mM KCl, 1 mM DTT, 50 ng/ml poly(dI-dC), 2.5% glycerol, 0.05% NP-40, 100 mM ZnCl2 (so in the source), 0.5 ug/ml BSA, 20 min at room temperature; 6% native PAGE. The following applies: protein: recombinant; tags: 6xHis; label: 5' biotin; blunt (complementary oligonucleotides; second strand not seen in material).

B1: 6×His-BBX21 (natural protein, Arabidopsis thaliana, UniProt Q9LQZ7 1-331, looked up)
chain: T3 sequence
notes: BBX21 (STH2), Arabidopsis thaliana; also called 6×His-tagged BBX21; source: Escherichia coli, purified
On to B1, for which, in the series with GST-ABI5, the binding result is “binds”.

B2: ABI5 promoter probe (dsDNA)
DNA 1: GATTCCGAACTTCCATTGGGAGTGCACGTGGACTATTCACTGCATAAGG
DNA 2: CCTTATGCAGTGAATAGTCCACGTGCACTCCCAATGGAAGTTCGGAATC
On to B2, for which the binding result in the series with GST-HY5 is “binds”; with 6xHis-BBX21 (STH2) it was “no binding”.
